Data reported in publication PMC4725768.

Columns and labels:
[1] = target: full-length FGFR3 (human FGFR3 IIIc) fused to YFP or mCherry (human) (UniProt P22607)
[2] = target: EC+TM (A374I-G375I-S378I) FGFR3 mutant (human)
[3] = target: A391E EC+TM FGFR3 construct (human)
[4] = target: FGFR3 EC+TM-(GGS)5-YFP / FGFR3 EC+TM-(GGS)5-mCherry (human)
[5] = target: EC+TM (L377I-G380I-A391I) FGFR3 mutant (human)
[6] = target: FGFR1 EC+TM-(GGS)5-YFP / FGFR1 EC+TM-(GGS)5-mCherry (human)

Chain of UniProt P22607 (P22607 23-806): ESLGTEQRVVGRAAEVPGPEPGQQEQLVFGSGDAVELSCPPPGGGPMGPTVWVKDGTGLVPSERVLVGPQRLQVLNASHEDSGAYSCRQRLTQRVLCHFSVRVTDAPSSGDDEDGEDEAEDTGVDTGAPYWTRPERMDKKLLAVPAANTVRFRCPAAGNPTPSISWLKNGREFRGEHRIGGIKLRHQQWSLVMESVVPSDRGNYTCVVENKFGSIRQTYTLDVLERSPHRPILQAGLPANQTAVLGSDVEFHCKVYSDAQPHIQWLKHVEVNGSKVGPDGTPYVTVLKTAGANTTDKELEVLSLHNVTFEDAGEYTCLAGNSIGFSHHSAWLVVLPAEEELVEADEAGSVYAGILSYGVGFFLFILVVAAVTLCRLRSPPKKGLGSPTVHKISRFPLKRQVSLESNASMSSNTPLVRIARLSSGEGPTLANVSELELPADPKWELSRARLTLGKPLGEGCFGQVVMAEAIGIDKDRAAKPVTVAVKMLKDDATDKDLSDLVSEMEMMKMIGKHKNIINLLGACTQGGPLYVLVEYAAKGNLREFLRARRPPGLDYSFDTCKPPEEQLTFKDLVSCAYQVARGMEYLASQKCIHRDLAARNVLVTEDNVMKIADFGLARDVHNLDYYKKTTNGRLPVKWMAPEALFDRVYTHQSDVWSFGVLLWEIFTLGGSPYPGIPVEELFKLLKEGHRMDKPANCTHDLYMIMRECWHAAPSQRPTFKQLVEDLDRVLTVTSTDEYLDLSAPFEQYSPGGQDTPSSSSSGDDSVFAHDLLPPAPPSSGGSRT

| fold increase of full-length FGFR3 phosphorylation (western blot, anti-phospho-Tyr) at saturating fgf1 over no ligand [1] [fold] | intrinsic FRET of the EC+TM FGFR3 A374I-G375I-S378I dimer (QI-FRET in vesicles) at saturating fgf1 [2] | intrinsic FRET of the EC+TM FGFR3 A391E dimer (QI-FRET in vesicles) at saturating fgf1 [3] | intrinsic FRET of the EC+TM FGFR3 dimer (QI-FRET in vesicles) at saturating fgf1 (5 μg ml^−1) [4] | intrinsic FRET of the EC+TM FGFR3 L377I-G380I-A391I dimer (QI-FRET in vesicles) at saturating fgf1 [5] | intrinsic FRET of the EC+TM FGFR1 dimer (QI-FRET in vesicles) at saturating fgf1 (5 μg ml^−1) [6] | fold increase of full-length FGFR3 phosphorylation (western blot, anti-phospho-Tyr) at saturating fgf2 over no ligand [1] [fold] | intrinsic FRET of the EC+TM FGFR3 A374I-G375I-S378I dimer (QI-FRET in vesicles) at saturating fgf2 [2] | intrinsic FRET of the EC+TM FGFR3 A391E dimer (QI-FRET in vesicles) at saturating fgf2 [3] | intrinsic FRET of the EC+TM FGFR3 dimer (QI-FRET in vesicles) at saturating fgf2 (5 μg ml^−1) [4] | intrinsic FRET of the EC+TM FGFR3 L377I-G380I-A391I dimer (QI-FRET in vesicles) at saturating fgf2 [5] | intrinsic FRET of the EC+TM FGFR1 dimer (QI-FRET in vesicles) at saturating fgf2 (5 μg ml^−1) [6] | Substance |
| --- | --- | --- | --- | --- | --- | --- | --- | --- | --- | --- | --- | --- |
| 1.5 to 3 | 0.63 | 0.75 | 0.55 | 0.52 | 0.55 |  |  |  |  |  |  | human fgf1 (from UniProt P05230 16-155) (ligand) |
|  |  |  |  |  |  | 2 to 4 | 0.74 | 0.78 | 0.72 | 0.53 | 0.73 | human fgf2 (from UniProt P09038 143-288) (ligand) |
